The results in this text go back to PMC5441903, “The E3 ligase ABI3-INTERACTING PROTEIN2 negatively regulates FUSCA3 and plays a role in cotyledon development in Arabidopsis thaliana” (Journal of Experimental Botany, 2017).

In the experiment the target is T1, GST–FUS3 (Arabidopsis thaliana, UniProt Q9LW31 1-313).
T1 construct: FUSCA3 (FUS3), Arabidopsis thaliana, At3g26790; GST fusion of ~66 kDa, construct described in Lu et al. (2010); probably the whole FUS3; also called glutathione S-transferase (GST)–FUS3; source: recombinant, purified (glutathione resin)
T1 sequence (looked up): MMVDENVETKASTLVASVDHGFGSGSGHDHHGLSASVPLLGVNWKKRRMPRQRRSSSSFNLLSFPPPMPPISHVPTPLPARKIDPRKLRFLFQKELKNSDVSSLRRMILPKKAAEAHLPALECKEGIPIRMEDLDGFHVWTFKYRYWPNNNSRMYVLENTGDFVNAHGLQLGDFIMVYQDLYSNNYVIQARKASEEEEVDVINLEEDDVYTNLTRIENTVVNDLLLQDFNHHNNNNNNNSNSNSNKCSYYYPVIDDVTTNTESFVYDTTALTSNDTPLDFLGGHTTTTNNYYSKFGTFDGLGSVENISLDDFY
In words: pull-down; purified GST–FUS3 as bait, purified AIP2-6×His variants as prey; glutathione resin; immunoblots with anti-His and anti-GST. Conditions: both partners purified. Background: Immunoblotting shows a protein as a band on a membrane.

B1: FLAG-AIP2-6×His (natural protein, Arabidopsis thaliana, UniProt Q8RXD3 1-310, looked up)
chain: MDASSSPSPSEESLKLELDDLQKQLNKKLRFEASVCSIHNLLRDHYSSSSPSLRKQFYIVVSRVATVLKTRYTATGFWVAGLSLFEEAERLVSDASEKKHLKSCVAQAKEQLSEVDNQPTESSQGYLFEGHLTVDREPPQPQWLVQQNLMSAFASIVGGESSNGPTENTIGETANLMQELINGLDMIIPDILDDGGPPRAPPASKEVVEKLPVIIFTEELLKKFGAEAECCICKENLVIGDKMQELPCKHTFHPPCLKPWLDEHNSCPICRHELPTDDQKYENWKEREKEAEEERKGAENAVRGGEYMYV
notes: tagged protein of ~40 kDa; also called AIP2-His; source: cloned into pET28, purified (Ni-NTA-agarose)
As for B1, the binding result is reported as “binds”.

B2: AIP2^(C/S,E/G)-6×His (inactive AIP2 variant) (natural protein, Arabidopsis thaliana, UniProt Q8RXD3 1-310, looked up)
chain: MDASSSPSPSEESLKLELDDLQKQLNKKLRFEASVCSIHNLLRDHYSSSSPSLRKQFYIVVSRVATVLKTRYTATGFWVAGLSLFEEAERLVSDASEKKHLKSCVAQAKEQLSEVDNQPTESSQGYLFEGHLTVDREPPQPQWLVQQNLMSAFASIVGGESSNGPTENTIGETANLMQELINGLDMIIPDILDDGGPPRAPPASKEVVEKLPVIIFTEELLKKFGAEAESSICKGNLVIGDKMQELPCKHTFHPPCLKPWLDEHNSCPICRHELPTDDQKYENWKEREKEAEEERKGAENAVRGGEYMYV
notes: ~40 kDa; Probably the same FLAG-...-6×His construct as m5 with the three mutations; source: recombinant, purified
For the molecule B2, the binding result is “binds”.
